For this series, the system named is CCC(=O)O. The series is described as follows: purified protein.

Source text: hydroxamate assay of propionate kinase activity on NMB0435 (AckA1)

Consider “NMB0435 (AckA1) (Neisseria meningitidis MC58)”, for which the Km (in general, the substrate concentration at which the rate is half of its maximum) is recorded as 16.3 ± 2.2 mM.

These data come from PMC4441257, “A large genomic island allows Neisseria meningitidis to utilize propionic acid, with implications for colonization of the human nasopharynx” (Molecular Microbiology, 2014).
